In one experiment the target is CD63 on cells (human) (UniProt P08962). The experiment is described as follows: cell-based or functional assay.
The target of experiment [1] is T1, recombinant human CD63 second extracellular domain (Ala 103-Val 203) fused with a polyhistidine tag at the … (human, UniProt P08962 103-203).
T1 construct: range 103-203; Bought from Creative BioMart; also called human His-tagged CD63; soluble CD63
T1 sequence (looked up): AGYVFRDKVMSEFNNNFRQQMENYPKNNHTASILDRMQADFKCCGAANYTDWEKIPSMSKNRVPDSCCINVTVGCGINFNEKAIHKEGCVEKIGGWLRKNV
Briefly: ELISA: antibody (1 µg/mL) captured on goat anti-human IgG, recombinant human His-tagged CD63 serially diluted (x axis, µg/mL CD63), detected with anti-poly-histidine-biotin, OD 405 nm. The text has this:
To improve efficacy of ADCs, a bispecific ADC was generated that specifically binds to a target protein (T) with one Fab-arm, while its second Fab-arm binds an effector protein (E), that facilitates internalization and lysosomal delivery of the cytotoxic payload. The resulting bsADC should induce cytotoxicity in cells that express both T and E. Some cytotoxicity may also be induced in cells that express T but not E, whereas the bsADC should not induce cytotoxicity in cells that express E but not TCD63 is used as effector protein (E). To ensure tumor specificity of the bsAb, the anti-CD63 arm (E) of the bsAb should preferably not bind and internalize in the absence of the tumor-specific arm (T) or only do this to a very limited degree. […] In short, ELISA plates (Greiner) were coated overnight at 4° C. with 0.8 μg/mL goat anti-human IgG (Jackson). […] Serially diluted (1-0.0005 μg/mL) recombinant human CD63 (Creative Biomart) was added followed by 1 μg/mL mouse anti-poly-histidine-biotin (R&D). The reaction was visualized using ABTS and stopped with oxalic acid. […] at 405 nm was measured and depicted using Graph Pad Prism 6 software.
For orientation: An ELISA detects its analyte on a solid surface through an enzyme-linked reagent.

For experiment [2], the target named is T1, recombinant human CD63 second …. Briefly: BLI (Octet HTX), IgG on anti-human Fc sensors, His-tagged CD63 as analyte, 30 C. On the procedure:
Association and dissociation kinetics of human His-tagged CD63 (100 nM, 50 nM, 25 nM and 12.5 nM, concentrations were calculated using the predicted molecular weight of 13 kDa) were determined in Sample Diluent (ForteBio), using an association time of 1000 s, a dissociation time of 2000 s and a shaker speed of 1000 rpm at 30° C. Data traces were corrected using a reference sensor exposed to Sample Diluent only during the association and dissociation steps, the Y-axis was aligned to baseline and Inter-step correction as well as Savitzky-Golay filtering were applied. The association rate constant Kₒₙ (1/Ms), dissociation rate constant Kdis (1/s) and equilibrium dissociation constant KD (M) were determined with ForteBio Data Analysis Software v8.1, using the 1:1 model and a global full fit.

By EC50 (read off the curve) is commonly meant the concentration giving half of the maximal effect. The Kd is the equilibrium constant for the complex coming apart. By koff is commonly meant the first-order rate constant of dissociation. The kon is the second-order rate constant of association.

Where a chain is given by its changes, count along the chain named. Names may count otherwise.

Sequence of CD63 on cells (human) (P08962 2-238): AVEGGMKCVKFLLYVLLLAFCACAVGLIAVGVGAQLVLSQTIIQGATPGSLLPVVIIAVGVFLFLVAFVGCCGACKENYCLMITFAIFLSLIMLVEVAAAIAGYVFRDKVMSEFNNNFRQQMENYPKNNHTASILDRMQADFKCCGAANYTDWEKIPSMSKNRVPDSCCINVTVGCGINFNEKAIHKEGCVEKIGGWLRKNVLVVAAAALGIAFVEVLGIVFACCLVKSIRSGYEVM

B1: bsHER2xCD63-Duo3 with CD63 variant LV49H (bispecific antibody, part only; not given: HER2 arm (IgG1-153) VH and VL, V domains shown, part only)
VH: EVQLQQSGPELVKPGASVKMSCKASGYTFTSYVMHWVRQTPGQGLEWIGYITPYNDGTKYNEKFKGKATLTSDKSSSTAYMELSSLTSEDSAVYYCVGGDNYYYAMDYWGQGTSVTVSAA
VL: NIMVTQSPSSLAVSAGEKVTMSCKSSQSHLYSSNQKNYLAWYQQKPGQSPKLLIYWASTRVSGVPDRFTGSGSGTDFTLTISRVQAEDLAVYYCHQYFSSFTFGSGTKLEIKRT
In the experiment with CD63 on cells (human), B1 showed an IC50 of cytotoxicity, Colo205 cells (CellTiter-GLO, 4 days) of 10 µg/mL; an IC50 of cytotoxicity, HCC1954 cells (CellTiter-GLO, 4 days) of 0.065 µg/mL; an IC50 of cytotoxicity, SK-OV-3 cells (CellTiter-GLO, 4 days) of 0.314 µg/mL.

B2: bsHER2xCD63-Duo3 with CD63 variant LY51H (bispecific antibody, part only; not given: HER2 arm (IgG1-153) VH and VL, V domains shown, part only)
VH: B1 VH
VL: B1 VL with H29V, Y31H
For the molecule B2, in the experiment with CD63 on cells (human), the IC50 of cytotoxicity, Colo205 cells (CellTiter-GLO, 4 days) stood at 10 µg/mL; the IC50 of cytotoxicity, HCC1954 cells (CellTiter-GLO, 4 days) is 0.069 µg/mL; the IC50 of cytotoxicity, SK-OV-3 cells (CellTiter-GLO, 4 days) came out at 0.207 µg/mL.

B3: bsCD63xb12-Duo3 with CD63 variant LY51H (bispecific antibody, part only; not given: b12 control arm VH and VL, V domains shown, part only)
VH: B1 VH
VL: B1 VL with H29V, Y31H
Turning to B3, in the experiment with CD63 on cells (human), the IC50 of cytotoxicity, Colo205 cells (CellTiter-GLO, 4 days) turned out to be 10 µg/mL; the IC50 of cytotoxicity, HCC1954 cells (CellTiter-GLO, 4 days) was 5.27 µg/mL; the IC50 of cytotoxicity, SK-OV-3 cells (CellTiter-GLO, 4 days) worked out at 4.52 µg/mL.

B4: wild type IgG1-CD63 (antibody, V domains shown)
VH: EVQLQQSGPELVKPGASVKMSCKASGYTFTSYVMHWVRQTPGQGLEWIGYITPYNDGTKYNEKFKGKATLTSDKSSSTAYMELSSLTSEDSAVYYCVGGDNYYYAMDYWGQGTSVTVSA
VL: NIMVTQSPSSLAVSAGEKVTMSCKSSQSVLYSSNQKNYLAWYQQKPGQSPKLLIYWASTRVSGVPDRFTGSGSGTDFTLTISRVQAEDLAVYYCHQYFSSFTFGSGTKLEIKR
notes: Mouse 2192 variable domains on human IgG1 constant domains (heavy chain with K409R or F405L) and a human light chain constant domain; also called wt IgG1-CD63; WT
Consider B4, for which, in experiment [1], the half-maximal effective concentration (EC50 (read off the curve)) is approximately 0.01 µg/mL. For the same molecule, in experiment [2], the Kd came out at 0.54 nM, the koff worked out at 0.00011 s⁻¹ and the kon amounted to 200000 M⁻¹ s⁻¹.

B5: IgG1-CD63 affinity variant Y127 (antibody, V domains shown)
VH: B4 VH with Y108H
VL: B4 VL
notes: As m1 with one histidine substitution
Regarding B5, in experiment [2], the Kd amounted to 0.54 nM, the koff turned out to be 0.00011 s⁻¹ and the kon worked out at 200000 M⁻¹ s⁻¹.

B6: IgG1-CD63 affinity variant LQ47 (antibody, V domains shown)
VH: B4 VH
VL: B4 VL with Q27H
notes: As m1 with one histidine substitution in the light chain
For B6, in experiment [2], the Kd amounted to 0.37 nM, the koff was found to be 6.7e-05 s⁻¹ and the kon was 180000 M⁻¹ s⁻¹.

B7: IgG1-CD63 affinity variant LY51H (antibody, V domains shown)
VH: B4 VH
VL: B4 VL with Y31H
notes: as for B6
Turning to B7, in experiment [2], the Kd worked out at 20 nM, the koff turned out to be 0.0019 s⁻¹ and the kon came out at 98000 M⁻¹ s⁻¹.

B8: IgG1-CD63 affinity variant LS52 (antibody, V domains shown)
VH: B4 VH
VL: B4 VL with S32H
notes: as for B6
In the case of B8, in experiment [2], the Kd turned out to be 0.36 nM, the koff is 6.3e-05 s⁻¹ and the kon came out at 170000 M⁻¹ s⁻¹.

B9: anti-CD63-LN54H (antibody, V domains shown)
VH: B4 VH
VL: B4 VL with N34H
Regarding B9, in experiment [2], the Kd turned out to be 2 nM, the koff was 0.00039 s⁻¹ and the kon amounted to 190000 M⁻¹ s⁻¹.

B10: IgG1-CD63 affinity variant P72H (antibody, V domains shown)
VH: B4 VH with P53H
VL: B4 VL
Take B10: in experiment [2], the Kd was 3.3 nM, the koff came out at 0.00057 s⁻¹ and the kon amounted to 170000 M⁻¹ s⁻¹.

B11: IgG1-CD63 affinity variant Y121H (antibody, V domains shown)
VH: B4 VH with Y102H
VL: B4 VL
notes: as for B5
Take B11: in experiment [2], the Kd is 20 nM, the koff worked out at 0.0014 s⁻¹ and the kon was found to be 70000 M⁻¹ s⁻¹.

B12: IgG1-CD63 affinity variant Y46 (antibody, V domains shown)
VH: B4 VH with Y27H
VL: B4 VL
notes: as for B5
On to B12, for which, in experiment [2], the Kd was found to be 0.78 nM, the koff was 0.00016 s⁻¹ and the kon is 200000 M⁻¹ s⁻¹.

B13: IgG1-CD63 affinity variant G76H (antibody, V domains shown)
VH: B4 VH with G57H
VL: B4 VL
notes: as for B5
Regarding B13, in experiment [2], the Kd is 17 nM, the koff was 0.00038 s⁻¹ and the kon turned out to be 22000 M⁻¹ s⁻¹.

B14: IgG1-CD63 affinity variant LV49H (antibody, V domains shown)
VH: B4 VH
VL: B4 VL with V29H
notes: as for B6
Take B14: in experiment [2], the Kd was 27 nM.

B15: IgG1-CD63N74H (antibody, V domains shown)
VH: B4 VH with N55H
VL: B4 VL
notes: also called anti-CD63-N74H
Consider B15, for which the “EC50 (read off the curve)” value in experiment [1] was approximately 0.06 µg/mL. In experiment [2], the Kd was 4.1 nM, the koff is 0.00069 s⁻¹ and the kon stood at 170000 M⁻¹ s⁻¹.

B16: IgG1-CD63 affinity variant Y79H (antibody, V domains shown)
VH: B4 VH with Y60H
VL: B4 VL
notes: as for B5
B16: in experiment [2], the Kd turned out to be 0.67 nM, the koff is 0.00014 s⁻¹ and the kon came out at 210000 M⁻¹ s⁻¹.

B17: IgG1-CD63 affinity variant T71H (antibody, V domains shown)
VH: B4 VH with T52H
VL: B4 VL
Turning to B17, in experiment [2], the Kd turned out to be 7.3 nM, the koff was determined as 0.0011 s⁻¹ and the kon amounted to 150000 M⁻¹ s⁻¹.

The record behind these values is patent US20190352423A1 (Genmab, published 2019).
